Data: the Immune Epitope Database (IEDB)

Key:
HLA-A*01:01 = assay: IEDB peptide-MHC binding, purified MHC/direct/fluorescence; filed as Kd, often an IC50 or EC50 that approximates it; ≥ and ≤ were set here for values at or beyond the usual limits of such assays
HLA-A*02:01 [1] = assay: as above
HLA-A*11:01 [2] = assay: as above
HLA-A*31:01 = assay: as above
HLA-A*68:02 = assay: as above
HLA-A*69:01 = assay: as above
HLA-B*07:02 [3] = assay: as above
HLA-B*08:01 = assay: as above
HLA-B*15:01 [4] = assay: as above
HLA-B*15:02 = assay: as above
HLA-B*15:09 = assay: as above
HLA-B*27:05 = assay: as above
HLA-B*46:01 = assay: as above
HLA-B*48:01 = assay: as above
HLA-B*57:01 = assay: as above
HLA-B*58:01 [5] = assay: as above
HLA-A*02:03 = assay: IEDB peptide-MHC binding, purified MHC/competitive/fluorescence; filed as Kd, often an IC50 or EC50 that approximates it; ≥ and ≤ were set here for values at or beyond the usual limits of such assays; conditions: source organism: Francisella tularensis subsp. tularensis FSC198
HLA-A*26:02 [6] = assay: as above; conditions: source organism: Francisella tularensis subsp. tularensis FSC198
HLA-A*30:01 = assay: as above; conditions: source organism: Francisella tularensis subsp. tularensis FSC198
HLA-B*15:17 [7] = assay: as above; conditions: source organism: Francisella tularensis subsp. tularensis FSC198
HLA-B*35:01 = assay: as above; conditions: source organism: Francisella tularensis subsp. tularensis FSC198
HLA-C*05:01 = assay: IEDB peptide-MHC binding, purified MHC/direct/fluorescence; filed as Kd, often an IC50 or EC50 that approximates it; ≥ and ≤ were set here for values at or beyond the usual limits of such assays
HLA-C*08:02 = assay: as above
HLA-A*02:01 [8] = assay: IEDB peptide-MHC binding, purified MHC/competitive/fluorescence; filed as Kd, often an IC50 or EC50 that approximates it; ≥ and ≤ were set here for values at or beyond the usual limits of such assays; conditions: source organism: Yersinia pestis Nepal516
HLA-B*15:01 [9] = assay: as above; conditions: source organism: Yersinia pestis Nepal516
HLA-B*39:01 = assay: as above; conditions: source organism: Yersinia pestis Nepal516
HLA-B*51:01 = assay: as above; conditions: source organism: Yersinia pestis Nepal516
HLA-B*58:01 [10] = assay: as above; conditions: source organism: Yersinia pestis Nepal516
HLA-A*03:01 = assay: IEDB peptide-MHC binding, purified MHC/direct/fluorescence; filed as Kd, often an IC50 or EC50 that approximates it; ≥ and ≤ were set here for values at or beyond the usual limits of such assays; conditions: source organism: Brucella abortus
HLA-A*26:02 [11] = assay: as above
HLA-B*08:02 = assay: as above
HLA-B*15:17 [12] = assay: as above
HLA-A*26:01 = assay: as above; conditions: source organism: Mycobacterium tuberculosis str. Haarlem
HLA-A*26:03 = assay: as above; conditions: source organism: Mycobacterium tuberculosis str. Haarlem
HLA-B*08:03 = assay: as above; conditions: source organism: Mycobacterium tuberculosis str. Haarlem
HLA-B*18:01 = assay: as above; conditions: source organism: Mycobacterium tuberculosis
HLA-B*40:01 = assay: as above; conditions: source organism: Mycobacterium tuberculosis
HLA-A*02:01 [13] = assay: IEDB peptide-MHC binding, purified MHC/competitive/fluorescence; ≥ and ≤ were set here for values at or beyond the usual limits of such assays; conditions: source organism: Zaire ebolavirus
HLA-A*11:01 [14] = assay: as above; conditions: source organism: Zaire ebolavirus
HLA-A*24:02 = assay: as above; conditions: source organism: Zaire ebolavirus
HLA-B*07:02 [15] = assay: as above; conditions: source organism: Zaire ebolavirus
HLA-B*15:01 [16] = assay: as above; conditions: source organism: Zaire ebolavirus
HLA-C*03:03 = assay: IEDB peptide-MHC binding, purified MHC/direct/fluorescence; filed as Kd, often an IC50 or EC50 that approximates it; ≥ and ≤ were set here for values at or beyond the usual limits of such assays; conditions: source organism: Mycobacterium tuberculosis C
HLA-A*02:11 = assay: as above; conditions: source organism: Francisella tularensis subsp. tularensis FSC033
HLA-A*02:12 = assay: as above; conditions: source organism: Francisella tularensis subsp. tularensis FSC033
HLA-A*02:19 = assay: as above; conditions: source organism: Francisella tularensis subsp. tularensis FSC033
HLA-C*12:03 = assay: as above; conditions: source organism: Francisella tularensis subsp. tularensis WY96-3418
[17] = source organism: Francisella tularensis subsp. holarctica LVS
[18] = source organism: Francisella tularensis subsp. tularensis FSC033
[19] = source organism: Yersinia pestis Nepal516
[20] = source organism: Brucella abortus
[21] = source organism: Brucella suis 1330
[22] = source organism: Mycobacterium tuberculosis
[23] = source organism: Mycobacterium tuberculosis str. Haarlem
[24] = source organism: Mycobacterium tuberculosis C

FQVNRFTGY
Kd (HLA-A*01:01; [17]): ≥ 20 µM
Kd (HLA-A*02:01 [1]; [17]): ≥ 20 µM
Kd (HLA-A*11:01 [2]; [17]): ≥ 20 µM
Kd (HLA-A*31:01; [17]): ≥ 20 µM
Kd (HLA-A*68:02; [17]): ≥ 20 µM
Kd (HLA-A*69:01; [17]): ≥ 20 µM
Kd (HLA-B*07:02 [3]; [17]): ≥ 20 µM
Kd (HLA-B*08:01; [18]): ≥ 20 µM
Kd (HLA-B*15:01 [4]; [17]): 0.0097 µM
Kd (HLA-B*15:02; [18]): 0.008 µM
Kd (HLA-B*15:09; [18]): ≥ 20 µM
Kd (HLA-B*27:05; [17]): 0.632 µM
Kd (HLA-B*46:01; [17]): ≥ 20 µM
Kd (HLA-B*48:01; [17]): ≥ 20 µM
Kd (HLA-B*57:01; [17]): ≥ 20 µM
Kd (HLA-B*58:01 [5]; [17]): ≥ 20 µM
Kd (HLA-A*02:03): ≥ 20 µM
Kd (HLA-A*26:02 [6]): 0.113 µM
Kd (HLA-A*30:01): ≥ 20 µM
Kd (HLA-B*15:17 [7]): ≥ 20 µM
Kd (HLA-B*35:01): 4.41 µM

FSYNVAYAI
Kd (HLA-C*05:01; [19]): 4.96 µM
Kd (HLA-C*08:02; [19]): 0.182 µM
Kd (HLA-A*02:01 [8]): 0.0296 µM
Kd (HLA-B*15:01 [9]): ≥ 20 µM
Kd (HLA-B*39:01): 0.469 µM
Kd (HLA-B*51:01): 2.27 µM
Kd (HLA-B*58:01 [10]): 0.0363 µM

GLAEKPNDY
Kd (HLA-A*01:01; [20]): ≥ 20 µM
Kd (HLA-A*02:01 [1]; [20]): ≥ 20 µM
Kd (HLA-A*03:01): ≥ 20 µM
Kd (HLA-A*11:01 [2]; [20]): ≥ 20 µM
Kd (HLA-A*26:02 [11]; [21]): ≥ 20 µM
Kd (HLA-A*31:01; [20]): ≥ 20 µM
Kd (HLA-A*68:02; [20]): ≥ 20 µM
Kd (HLA-A*69:01; [20]): ≥ 20 µM
Kd (HLA-B*07:02 [3]; [20]): ≥ 20 µM
Kd (HLA-B*08:02; [21]): ≥ 20 µM
Kd (HLA-B*15:01 [4]; [20]): 0.947 µM
Kd (HLA-B*15:02; [20]): 2 µM
Kd (HLA-B*15:09; [21]): ≥ 20 µM
Kd (HLA-B*15:17 [12]; [20]): ≥ 20 µM
Kd (HLA-B*27:05; [20]): ≥ 20 µM
Kd (HLA-B*46:01; [20]): ≥ 20 µM
Kd (HLA-B*48:01; [20]): ≥ 20 µM
Kd (HLA-B*57:01; [20]): ≥ 20 µM
Kd (HLA-B*58:01 [5]; [20]): ≥ 20 µM

KYFVRSTEK
Kd (HLA-A*01:01; [22]): ≥ 20 µM
Kd (HLA-A*02:01 [1]; [22]): ≥ 20 µM
Kd (HLA-A*11:01 [2]; [22]): 1.79 µM
Kd (HLA-A*26:01): ≥ 20 µM
Kd (HLA-A*26:02 [11]; [23]): ≥ 20 µM
Kd (HLA-A*26:03): ≥ 20 µM
Kd (HLA-A*31:01; [22]): 0.0021 µM
Kd (HLA-A*68:02; [22]): ≥ 20 µM
Kd (HLA-B*07:02 [3]; [22]): ≥ 20 µM
Kd (HLA-B*08:01; [23]): ≥ 20 µM
Kd (HLA-B*08:02; [23]): ≥ 20 µM
Kd (HLA-B*08:03): ≥ 20 µM
Kd (HLA-B*15:01 [4]; [22]): ≥ 20 µM
Kd (HLA-B*15:17 [12]; [22]): ≥ 20 µM
Kd (HLA-B*18:01): ≥ 20 µM
Kd (HLA-B*27:05; [22]): ≥ 20 µM
Kd (HLA-B*40:01): ≥ 20 µM
Kd (HLA-B*46:01; [22]): ≥ 20 µM
Kd (HLA-B*48:01; [22]): ≥ 20 µM
Kd (HLA-B*57:01; [22]): ≥ 20 µM
Kd (HLA-B*58:01 [5]; [22]): ≥ 20 µM

RTNFLIKFL
IC50 (HLA-A*02:01 [13]): ≥ 165 µM
IC50 (HLA-A*11:01 [14]): ≥ 589 µM
IC50 (HLA-A*24:02): 10.2 µM
IC50 (HLA-B*07:02 [15]): ≥ 275 µM
IC50 (HLA-B*15:01 [16]): ≥ 725 µM

SPQNHSETA
IC50 (HLA-B*07:02 [15]): 45.2 µM

YLDAIQQPV
Kd (HLA-C*03:03): 0.256 µM
Kd (HLA-C*05:01; [24]): 0.025 µM
Kd (HLA-C*08:02; [24]): ≤ 0.001 µM

YLYPWSLGL
Kd (HLA-A*02:01 [1]; [17]): ≤ 0.001 µM
Kd (HLA-A*02:11): ≤ 0.001 µM
Kd (HLA-A*02:12): 0.002 µM
Kd (HLA-A*02:19): 0.012 µM
Kd (HLA-C*08:02; source organism: Francisella tularensis subsp. tularensis WY96-3418): ≥ 20 µM
Kd (HLA-C*12:03): 0.004 µM
